Measured values from article PMC4829420, “The innate immune sensor IFI16 recognizes foreign DNA in the nucleus by scanning along the duplex” (eLife, 2015).

Biological target: the molecule itself
Assay: single-molecule fluorescence imaging (TIRF) with intensity analysis; Cy5-labelled IFI16 (3 to 5 nM) supplied under constant flow (20 ul/min) to single-biotinylated lambda dsDNA anchored on a coverslip; number of molecules per cluster from particle intensity against single molecules at 1 nM; 40 mM HEPES pH 7.4, 160 mM KCl, 1 mM EDTA, 2 mM DTT, 10% glycerol, 0.1% Triton-X100, 250 ug/ml BSA; room temperature

B1: Human full-length IFI16 (interferon-inducible protein 16) (natural protein, UniProt Q16666 1-785, looked up)
chain: MGKKYKNIVLLKGLEVINDYHFRMVKSLLSNDLKLNLKMREEYDKIQIADLMEEKFRGDAGLGKLIKIFEDIPTLEDLAETLKKEKLKVKGPALSRKRKKEVDATSPAPSTSSTVKTEGAEATPGAQKRKKSTKEKAGPKGSKVSEEQTQPPSPAGAGMSTAMGRSPSPKTSLSAPPNSSSTENPKTVAKCQVTPRRNVLQKRPVIVKVLSTTKPFEYETPEMEKKIMFHATVATQTQFFHVKVLNTSLKEKFNGKKIIIISDYLEYDSLLEVNEESTVSEAGPNQTFEVPNKIINRAKETLKIDILHKQASGNIVYGVFMLHKKTVNQKTTIYEIQDDRGKMDVVGTGQCHNIPCEEGDKLQLFCFRLRKKNQMSKLISEMHSFIQIKKKTNPRNNDPKSMKLPQEQRQLPYPSEASTTFPESHLRTPQMPPTTPSSSFFTKKSEDTISKMNDFMRMQILKEGSHFPGPFMTSIGPAESHPHTPQMPPSTPSSSFLTTKSEDTISKMNDFMRMQILKEGSHFPGPFMTSIGPAESHPHTPQMPPSTPSSSFLTTLKPRLKTEPEEVSIEDSAQSDLKEVMVLNATESFVYEPKEQKKMFHATVATENEVFRVKVFNIDLKEKFTPKKIIAIANYVCRNGFLEVYPFTLVADVNADRNMEIPKGLIRSASVTPKINQLCSQTKGSFVNGVFEVHKKNVRGEFTYYEIQDNTGKMEVVVHGRLTTINCEEGDKLKLTCFELAPKSGNTGELRSVIHSHIKVIKTRKNKKDILNPDSSMETSPDFFF
modifications: DyLight-550, DyLight-650 or Cy5 fluorophore incorporated by maleimide chemistry; label to protein ratio ~1:1
notes: interferon-inducible protein 16 (IFI16), human, full length; FRET assays mixed DyLight-550 and DyLight-650 labelled protein 1:1; microscopy used Cy5-labelled protein; also called IFI16-550; IFI16-650; source: E. coli T7 express cells (NEB), as described in Morrone et al., 2014
B1 was tested, and the “stoichiometry N” value was no less than 8 protomers per cluster.
